Data reported in article PMC8560993.

Tests used:
[1] = biological target: F-actin (rabbit) (UniProt P68135)
[2] = biological target: Regulated thin filaments (TRITC-actin with skeletal tropomyosin and troponin) (rabbit | not stated) (UniProt P68135)
[3] = biological target: F-actin (rabbit) (UniProt P68135); remark: listed apart in the source
[4] = biological target: F-actin (rabbit) (UniProt P68135); remark: listed apart in the source
[5] = biological target: F-actin (rabbit) (UniProt P68135); remark: listed apart in the source
[6] = biological target: F-actin (rabbit) (UniProt P68135); remark: listed apart in the source

Skeletal muscle myosin (from UniProt Q28641 1-1938) (complex)
KM for F(N): N at half-maximal V(N) against a mechanical load of 0.5 μg/ml α-actinin on the motility surface [1]: 16
KM for F(N): N at half-maximal V(N) against a mechanical load of 1.0 μg/ml α-actinin on the motility surface [1]: 38
KM for V: N (myosin per μm actin; N equals μg/ml myosin incubated) at half-maximal actin sliding velocity V(N), in vitro motility assay, 50 mM KCl, 30 °C [1]: 16
KM for V: N at half-maximal actin sliding velocity V(N), in vitro motility assay, 100 mM KCl, 30 °C [1]: 17
KM for v: N at half-maximal actin-activated ATPase activity v(N), measured in a motility flow cell, 50 mM KCl, 30 °C [1]: 46
KM for v: N at half-maximal actin-activated ATPase activity v(N), measured in a motility flow cell, 100 mM KCl, 30 °C [1]: 23
pseudo KM for pCa50: half the N at which the pCa50 of thin filament sliding velocity saturates, in vitro motility assay, 50 mM KCl [2]: 24
pseudo KM for pCa50: half the N at which the pCa50 of thin filament sliding velocity saturates, in vitro motility assay, 100 mM KCl [2]: 26
actin activation of the ATPase activity of surface-bound myosin at low N in a motility flow cell (0.15 μM actin, Figure 3) [3]: 4 fold
inhibition of actin-activated ATPase activity (N = 5, 1.0 μM actin; v from 0.59 to 0.26 μM Pi/min) by the load of 1.0 μg/ml α-actinin on the motility surface [4]: 55%
KM: N at half-maximal V(N), in vitro motility assay, control without (-)-blebbistatin (Figure 2D) [5]: 16.1
KM: N at half-maximal V(N), in vitro motility assay, with 10 μM (-)-blebbistatin (Figure 2D) [5]: 13.3
KM: N at half-maximal V(N), in vitro motility assay, with 50 μM (-)-blebbistatin (Figure 2D) [5]: 6.4
KM: N at half-maximal V(N), in vitro motility assay, control without α-actinin (Figure 5A) [6]: 19
